# Laboratory results reported in paper doi:10.1101/2021.09.20.461017 (bioRxiv, 2021).
# Molecular target: the molecule itself
# Assay: crystal structure
protein,measurement,value
ClpP from Bacillus subtilis (BsClpP) (enzyme) not shown,stoichiometry N,14
